Assay results from patent publication US20110097739A1.

Biological target: HCEC protein fraction
Assay: ELISA on the coated protein fraction, lysate treated or not with neuraminidase

FC5 llama single-domain antibody (sdAb), expressed in fusion with His5 and c-myc tags (VHH)
reduction of binding after neuraminidase treatment of the lysate: 50%
